Measured values published in the nanobody polyreactivity screen of Harvey et al. (2022).

experiment: yeast display, Sf9 membrane polyspecificity reagent, FACS + sequencing; frameworks hold sequencing errors
Procedure, shortened: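 In a synthetic yeast display library (Saccharomyces cerevisiae BJ5465), nanobody expression was induced with galactose for 36–48 hours. FACS gates were set low and high (top ~1%) using anti-HA fluorescence for expression and streptavidin fluorescence for binding of the Sf9 membrane reagent. Each polyreactivity label is drawn from the gate of origin.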

Which “polyreactivity (PSR sort gate)” value does the source give for “QVQLVESGGGLVQAGGSLRLSCAASGSTFSYYAMGWYRQAPGKERELVAAISSRGGSTYYADSVKGRFTISRDNAMNNVYLQMNSLKPEDTAVYFCNADHQFRSSVSGDHDFWGQGTQVTVSS” here?
The value was “high polyreactivity”.

Which “polyreactivity (PSR sort gate)” value does the source give for “QVQLVESGGGLVQAGGSLRLSCAASGSTFSYYAMGWYRQAPGKERELVAAITYSVGSTYYADSVKGRFTISRDNAKNTVYLQMNSLKPEDTAVYYCNKRYYYSRANYPYDYWGQGTQVTVSS” here?
The value was “low polyreactivity”.

Which “polyreactivity (PSR sort gate)” value does the source give for “QVQLVESGGGLVQAGGSLRLSCAASGSTFSYYTMGWYRQAPGKERELVAAISFSGGSTYYADSVKGRFTISRDNAKNTVYLQMNSLKPEDTAVYYCAAKGYVGRYDYWGQGTQVTVSS” here?
The value was “high polyreactivity”.

With “QVQLVESGGGLVQAGGSLRLSCAASGSTFTANAMGWYRQAPGKERELVASISARDGSTYADSVKGRFTISRDNAKKTVYLQMNSLKPEDTAVYYCNAAYFHIFPYDYDYWGQGTQVTVSS” as the sequence, how does the “polyreactivity (PSR sort gate)” value read?
The value was “low polyreactivity”.

For “QVQLVESGGGLVQAGGSLRLSCAASGSTFTDYDMGWYRQAPGKERELVAAITSGGSTNYADSVKGRCTISRDNAKNTVYLQMNRLKPEDTAVYYWAAADADSKYDYWGQGTQVTVSS”, which “polyreactivity (PSR sort gate)” value is on record?
Its value is “low polyreactivity”.

For “QVQLVESGGGLVQAGGSLRLSCAASGSTFTDYDMGWYRQAPGKERELVAAITSGGSTNYADSVKGRITISRDNAKNTVYLQMNSLKPEDTAVYYCAAADADRKYDYWGQGTQVTVSS”, which “polyreactivity (PSR sort gate)” value is on record?
Its value is “low polyreactivity”.

For “QVQLVESGGGLVQAGGSLRLSCAASGSTFTDYDMGWYRQAPGTERELVAAITSGCSTNYADSVKGRFTISRDNAKNTVYLQMNSLKPEDTAVYYCAAADADRKYDYWGQGTQVTVTS”, which “polyreactivity (PSR sort gate)” value is on record?
The value was “low polyreactivity”.

Which “polyreactivity (PSR sort gate)” value does the source give for “QVQLVESGGGLVQAGGSLRLSCAASGSTFTEYAMGWYRQAPGKERELVAAITNSGSSTNYEDSVKGRFTISRDNAKNTVYLQMNSLKPEDTAVYYCNASSYPWEYYYLYYGYDYWGQGTQVTVSS” here?
The value was “low polyreactivity”.

Which “polyreactivity (PSR sort gate)” value does the source give for “QVQLVESGGGLVQAGGSLRLSCAASGSTFTFYAMGSYRQAPGKERELGAAINGRGGSTYYADSVKGRFTISRDNANNTVYLQMNSLKPEDTADYYCATRLYYSVRYNMGYWGQGTQVTVSS” here?
The value was “high polyreactivity”.

Which “polyreactivity (PSR sort gate)” value does the source give for “QVQLVESGGGLVQAGGSLRLSCAASGSTFTGNAMGWYRQAPGKERELVAAITDRGGSTYADSVKGRFTISRDNAKNTVYLQMNSLKPEDTAVYYCATRRDLHDRYEYDYWGQGTQVTVSS” here?
The value was “low polyreactivity”.

For “QVQLVESGGGLVQAGGSLRLSCAASGSTFTGNAMGWYRQAPGKERELVASINGSSGSTYYADSVKGRFTISRDNAKNTVYLQMNSLKPEDTAVYYCAKDSFLHFPLVGWVGLEYWGQGTQVTVSS”, which “polyreactivity (PSR sort gate)” value is on record?
The value was “low polyreactivity”.

Which “polyreactivity (PSR sort gate)” value does the source give for “QVQLVESGGGLVQAGGSLRLSCAASGSTFTGNAMGWYRQAPGKERELVASISTGGSTNYADSVKGRFTISRDNAKNTVYLQMNSLKPEDTAVYYCATDYCFKDSVVDFDYWGQGTQVTVSS” here?
The value was “low polyreactivity”.

Which “polyreactivity (PSR sort gate)” value does the source give for “QVQLVESGGGLVQAGGSLRLSCAASGSTFTGYAMAWYRQAPGKERELVAAISSDGGSTYYADSVKGRFTMSRDNAKNTVYLQMNSLKPEDTAVYYCAALVYVSGYGYYYWGQGTQVTVSS” here?
Its value is “high polyreactivity”.

For “QVQLVESGGGLVQAGGSLRLSCAASGSTFTGYAMGWYRPAPGKESELVAAISISGGRTFYADSVKGRFTISRDNAKNTVYLQMNSLKPEDTSVYYCAVYRRGGVEAFLYWGQGTQVTVSS”, which “polyreactivity (PSR sort gate)” value is on record?
The value was “high polyreactivity”.

Which “polyreactivity (PSR sort gate)” value does the source give for “QVQLVESGGGLVQAGGSLRLSCAASGSTFTGYAMGWYRQAPGKERELVAAISRSGGSTYYADSVKGRFTISRDNAKNTVYLQMNSLKPEDTAVYYCYVDPSARRYVYWGQGTQVTVSS” here?
Its value is “high polyreactivity”.

With “QVQLVESGGGLVQAGGSLRLSCAASGSTFTGYAMGWYRQAPGKERELVAAISRSVGRTYYADSVKGRFTISRDNAKNTVYLQMNSLKPEETAVYYCAADVFLTGSRNYYWGQGTQVTVSS” as the sequence, how does the “polyreactivity (PSR sort gate)” value read?
Its value is “high polyreactivity”.

Which “polyreactivity (PSR sort gate)” value does the source give for “QVQLVESGGGLVQAGGSLRLSCAASGSTFTGYTKGWYRQAPGKERELVAAITYRGGSTYYADSVKGRFTISRDNAKNTVYLQMNSLKPEDTAVYYCAAVPEYYEYSPYDYWGQGTQVTVSS” here?
Its value is “low polyreactivity”.

With “QVQLVESGGGLVQAGGSLRLSCAASGSTFTHYDMGWYRQAPGKERELVADISRSGGRTYYADSVKGRFTISRDNAKNTVYLQMNSLKPEDTAVYYCATEFEHINGVNQGPYIDDYSWGQGSQVTVSS” as the sequence, how does the “polyreactivity (PSR sort gate)” value read?
The value was “low polyreactivity”.

Which “polyreactivity (PSR sort gate)” value does the source give for “QVQLVESGGGLVQAGGSLRLSCAASGSTFTINVMGSYRQAPGKERELVAAINGGGRTNYADSVKGRFTISRDNAKNTVYLQMNSLKPEDTAVYYCAADGLSNVRQMDYWGQGTQVTVSS” here?
The value was “low polyreactivity”.

For “QVQLVESGGGLVQAGGSLRLSCAASGSTFTIYAMGWYRQAPGKERELVAAITWNGGSTYYADSVKGRFTISRDNAKKTVYLQMNRLKPEDTAVYYCAAKFRYQYVRVAREYYYWGQGTQVTVSS”, which “polyreactivity (PSR sort gate)” value is on record?
Its value is “high polyreactivity”.

For “QVQLVESGGGLVQAGGSLRLSCAASGSTFTIYAMGWYRQAPGKERELVAGITRVGSTNYADSVKGRFTISRDNAKYTVYLQMNSLKPEDTAVYYCARRDLFQAGYEYWGQGTQVTVSS”, which “polyreactivity (PSR sort gate)” value is on record?
Its value is “low polyreactivity”.
